Columns and labels:
Experiment in all cases: IEDB peptide-MHC binding, purified MHC/competitive/fluorescence; ≥ and ≤ were set here for values at or beyond the usual limits of such assays
Conditions in all cases: source organism: Plasmodium falciparum
HLA-A*01:01 = molecular target: HLA-A*01:01
HLA-B*07:02 = molecular target: HLA-B*07:02
HLA-A*03:01 = molecular target: HLA-A*03:01
HLA-A*24:02 = molecular target: HLA-A*24:02
HLA-B*44:02 = molecular target: HLA-B*44:02
HLA-A*02:01 = molecular target: HLA-A*02:01

LNDEYIVSY was tested, and the IC50 (HLA-A*01:01) was 28.1 µM.
For LPIKSTEEEK, the IC50 (HLA-B*07:02) was no less than 100 µM.
For LPLKIENREY, the IC50 (HLA-B*07:02) was no less than 100 µM.
For LPSAKNNCEY, the IC50 (HLA-B*07:02) was no less than 100 µM.
Sequence LQKHGFHTM has an IC50 (HLA-B*07:02) of no less than 100 µM.
LSDTLQLHED gave an IC50 (HLA-A*01:01) of no less than 100 µM.
Sequence LSSYVSLPLK has an IC50 (HLA-A*03:01) of 0.654 µM.
With LTIIYIHLF the IC50 (HLA-A*01:01) was no less than 100 µM and the IC50 (HLA-A*24:02) was 69.5 µM.
Sequence LTPVATGNQY has an IC50 (HLA-A*01:01) of 2.56 µM.
In the case of MDMKNYGTNL, the IC50 (HLA-B*07:02) is reported as no less than 100 µM.
MIRIKKKLIL gave an IC50 (HLA-B*07:02) of no less than 100 µM.
MNRTFKKMM gave an IC50 (HLA-B*07:02) of no less than 100 µM.
With MPKAVIGSSP the IC50 (HLA-B*07:02) was no less than 293 µM.
Sequence NDNNFAECY has an IC50 (HLA-B*44:02) of no less than 100 µM.
With NDVPIKMEYF the IC50 (HLA-B*44:02) was no less than 100 µM.
Work on NEDYKNVDY yielded an IC50 (HLA-A*01:01) of 8.92 µM.
For NEIDKLTFSL, the IC50 (HLA-B*44:02) was no less than 332 µM.
NEKNDVKNN gave an IC50 (HLA-B*44:02) of no less than 100 µM.
NENNENNFL showed an IC50 (HLA-B*44:02) of no less than 100 µM.
NEYSLFITS gave an IC50 (HLA-B*44:02) of no less than 100 µM.
NFGRGQNYW showed an IC50 (HLA-A*24:02) of 0.229 µM.
NIFHHLIYV gave an IC50 (HLA-A*02:01) of 2.29 µM.
Work on NKNDDSYRY yielded an IC50 (HLA-A*01:01) of 6.68 µM.
NLFEQLSCY was tested, and the IC50 (HLA-A*01:01) was no less than 100 µM.
NLFSSIEIV gave an IC50 (HLA-A*02:01) of 1.55 µM.
With NNEDYKNVDY the IC50 (HLA-A*01:01) was 7.99 µM.
NPEDRNSNTL gave an IC50 (HLA-B*07:02) of 2.7 µM.
In the case of NPQQSVGENG, the IC50 (HLA-B*07:02) is reported as no less than 100 µM.
Work on NSILIKPEKY yielded an IC50 (HLA-A*01:01) of no less than 109 µM.
NSIYHKSSTY showed an IC50 (HLA-A*03:01) of no less than 101 µM and an IC50 (HLA-A*01:01) of no less than 100 µM.
NSYKEWISKK showed an IC50 (HLA-A*03:01) of 7.37 µM.
NTNGIRYHY was tested, and the IC50 (HLA-A*01:01) was 4.38 µM.
NVNFLQYHFK was tested, and the IC50 (HLA-A*03:01) was no less than 100 µM.
NYKLGVQYFF was tested, and the IC50 (HLA-A*24:02) was 26.3 µM.
In the case of NYMGNPWTE, the IC50 (HLA-A*24:02) is reported as 37.9 µM.
With PFHKKFISFF the IC50 (HLA-A*24:02) was 0.0356 µM.
In the case of PVATGNQYLK, the IC50 (HLA-A*03:01) is reported as no less than 328 µM.
For PYISKYGNKL, the IC50 (HLA-A*24:02) was 0.179 µM.
With QYLKDGGFAF the IC50 (HLA-A*24:02) was 0.0419 µM.
In the case of RASHTTPVL, the IC50 (HLA-B*07:02) is reported as 0.258 µM.
In the case of RLSHTDIHK, the IC50 (HLA-A*03:01) is reported as 1.74 µM.
In the case of RPNDCESVL, the IC50 (HLA-B*07:02) is reported as 0.377 µM.
Work on RPYISKNDL yielded an IC50 (HLA-B*07:02) of 0.244 µM.
Sequence RQMLYNTFYS has an IC50 (HLA-A*02:01) of no less than 319 µM.
RTFKKMMDEY showed an IC50 (HLA-A*03:01) of no less than 100 µM and an IC50 (HLA-A*01:01) of no less than 100 µM.
With RTFQKDELLK the IC50 (HLA-A*03:01) was 24.2 µM.
With RYNLYDKKL the IC50 (HLA-A*24:02) was 0.172 µM.
With SAFLPTGAFK the IC50 (HLA-A*03:01) was 0.345 µM.
SECDIGLIY showed an IC50 (HLA-A*01:01) of no less than 100 µM and an IC50 (HLA-B*44:02) of no less than 100 µM.
SIEIVERSNY gave an IC50 (HLA-A*01:01) of 12.1 µM.
SILPDINKSK gave an IC50 (HLA-A*03:01) of 12.7 µM.
SIYHKSSTY gave an IC50 (HLA-A*03:01) of 5.93 µM and an IC50 (HLA-A*01:01) of no less than 100 µM.
SLFITSDHL was tested, and the IC50 (HLA-A*02:01) was 7.12 µM.
Work on SLIKQNKYV yielded an IC50 (HLA-A*02:01) of 29.9 µM.
In the case of SMIKSAFLPT, the IC50 (HLA-A*02:01) is reported as 12.5 µM.
With SPLNLQENEM the IC50 (HLA-B*07:02) was 22.4 µM.
SPNDNINVT was tested, and the IC50 (HLA-B*07:02) was 36.1 µM.
STCRFFVCK showed an IC50 (HLA-A*03:01) of 5.9 µM.
STCYGNRFNY showed an IC50 (HLA-A*03:01) of no less than 100 µM and an IC50 (HLA-A*01:01) of 54 µM.
STDPHTNSNN showed an IC50 (HLA-A*01:01) of no less than 100 µM.
STEEEKDDIK gave an IC50 (HLA-A*01:01) of 6.83 µM.
SVLNGNDNTI showed an IC50 (HLA-A*02:01) of no less than 640 µM.
Sequence SYFTYDSEEY has an IC50 (HLA-A*24:02) of 22.3 µM.
For SYNSIYHKS, the IC50 (HLA-A*24:02) was 57.7 µM.
SYRYDISEEI was tested, and the IC50 (HLA-A*24:02) was 0.363 µM.
TIIYIHLFIL showed an IC50 (HLA-B*07:02) of 13.7 µM.
Work on TLNDEYIVSY yielded an IC50 (HLA-A*03:01) of no less than 304 µM and an IC50 (HLA-A*01:01) of no less than 213 µM.
Sequence TPGPLDNTSE has an IC50 (HLA-B*07:02) of no less than 100 µM.
With TSSLIKQNKY the IC50 (HLA-A*01:01) was 37.1 µM.
VENNFPCSLY gave an IC50 (HLA-A*03:01) of no less than 85.4 µM and an IC50 (HLA-B*44:02) of 6.02 µM.
For VLLLSAFEFT, the IC50 (HLA-A*02:01) was no less than 100 µM.
Work on VLNGNDNTI yielded an IC50 (HLA-A*02:01) of 7.31 µM.
VQYFFLRPYI showed an IC50 (HLA-A*02:01) of no less than 100 µM and an IC50 (HLA-B*44:02) of no less than 100 µM.
YENKSLTHYL gave an IC50 (HLA-B*44:02) of no less than 112 µM.
Sequence YIDTIKFIHK has an IC50 (HLA-A*01:01) of 1.51 µM.
With YIFFNNENSI the IC50 (HLA-A*02:01) was 2.83 µM.
Work on YIHKLILSV yielded an IC50 (HLA-A*02:01) of 1.15 µM.
Work on YIYIDTIKFI yielded an IC50 (HLA-A*02:01) of 53.1 µM.
Sequence YIYNQIIWKI has an IC50 (HLA-A*02:01) of 1.95 µM.
For YLNKYVYTI, the IC50 (HLA-A*02:01) was 0.342 µM and the IC50 (HLA-A*24:02) was 0.135 µM.
For YLNTNVNDGL, the IC50 (HLA-A*02:01) was 2.83 µM.
Sequence YMGNPWTEYM has an IC50 (HLA-A*02:01) of 21.4 µM.
YVGDNINNV gave an IC50 (HLA-A*02:01) of 1.82 µM.
YYRSSRGECI showed an IC50 (HLA-A*24:02) of 0.175 µM.

— the Immune Epitope Database (IEDB)
